In US20250145716A1 (RAKUTEN MEDICAL, published 2025):

Assays:
6xHis-tagged huPD-L1 = target: T1, 6xHis-tagged huPD-L1 (human, UniProt Q9NZQ7 19-238); assay: ELISA, plate-coated 6xHis huPD-L1, OD 450 nm
T1 construct: also called human PD-L1 (RD Systems 9049-B7); extracellular domain of human PD-L1 fused to a His tag; not shown: 6xHis tag
Description: Hybridoma supernatants were tested for binding to huPD-L1, cyPD-L1, and muPD-L1 by ELISA. Briefly, 30 μL 6xHis-tagged huPD-L1, cyPD-L1, or muPD-L1 (1 μg/mL in PBS) were immobilized in wells of a 96-well assay plate overnight at 4° C. After washing and blocking steps, 30 μL of antibody supernatant were added to the plate and incubated at room temperature for 1 hr. Bound human antibody was detected using horseradish peroxidase (HRP)-conjugated goat anti-human Fc (Invitrogen Cat. No. 109-035-097; diluted 1:5000) or goat anti-mouse Fc HRP (Invitrogen Cat. No. 115-035-071) as a control. Bound antibody was detected with 1-Step Ultra™ TMB-ELISA Substrate (ThermoFisher Scientific Cat. No. 34029). When the reaction was complete the reaction was stopped, and the plate was read at 450 nm.
Anti-PD-L1 antibodies, described in Example 1A and manufactured substantially as described in Example 1B, were tested for to huPD-L1 and cyPD-L1 by ELISA substantially as described in Example 1A, using 12 dilutions of antibody ranging from 1 ng/ml to 3 mg/mL.

[1] = target: T2, human PD-L1 expressed on cells (human, UniProt Q9NZQ7 19-290); assay: flow cytometry, PD-L1-expressing CHO cells, MFI (FITC)
T2 construct: whole, on cells; One entry covers all human PD-L1-bearing cells; also called huPD-L1 on CHO cells (CHO-hPD-L1); PD-L1 on A431 cells
T2 sequence (Q9NZQ7 19-290): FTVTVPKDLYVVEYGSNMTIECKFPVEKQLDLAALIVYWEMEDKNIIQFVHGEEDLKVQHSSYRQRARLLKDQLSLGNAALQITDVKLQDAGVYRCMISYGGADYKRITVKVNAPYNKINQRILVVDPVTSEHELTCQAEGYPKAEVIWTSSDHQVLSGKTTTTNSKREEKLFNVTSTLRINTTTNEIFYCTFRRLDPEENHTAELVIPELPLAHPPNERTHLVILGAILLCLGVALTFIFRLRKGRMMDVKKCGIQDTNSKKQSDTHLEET
Description: Wild-type (wt) Chinese hamster ovary (CHO) cells (ATCC) and CHO cells engineered to express huPD-L1 (BPS Bioscience) were seeded at 200,000 cells in 50 μL FACS buffer (PBS containing 1% FBS and 5 mM EDTA) per well of a 96-well plate. Cell viability was assessed by adding 50 μL 2×Zombie Violet (BioLegend). Dead cell controls were also prepared and 2×Zombie violet was added. After incubating 20-30 minutes at room temperature, protected from light, 150 μL FACS buffer were added to each well. The plates were centrifuged, and the supernatant was aspirated. […] The plates were incubated 30 minutes on ice, protected from light. 150 μL FACS buffer were then added to each well and the plate was centrifuged. The supernatant was removed and the cells were washed three times in 200 μL FACS buffer. […] The cells were incubated 30 minutes on ice, protected from light. 150 μL FACS buffer were then added to each well and the plate was centrifuged. Supernatant was removed and the cells were washed twice with 200 μL FACS buffer. The cells were then resuspended in FACS buffer and analyzed by CytoFLEX using the appropriate channels. After gating for whole, single, live cells, the MFI in the APC channel (or FITC channel for human control samples) was normalized to the signal from hybridoma media alone (or isotype control for human control). MFI fold over media alone was determined for each clone supernatant tested.

[2] = target: T3, PD-L1-His (Acro Cat PDL-H5229) (human, UniProt Q9NZQ7 19-238); assay: SPR (Biacore 4000), antibody captured on anti-human CM4 chip, PD-L1-His analyte, 25° C.
T3 construct: also called human PD-L1 (SPR analyte); not shown: His tag
T3 sequence (Q9NZQ7 19-238 limits assumed): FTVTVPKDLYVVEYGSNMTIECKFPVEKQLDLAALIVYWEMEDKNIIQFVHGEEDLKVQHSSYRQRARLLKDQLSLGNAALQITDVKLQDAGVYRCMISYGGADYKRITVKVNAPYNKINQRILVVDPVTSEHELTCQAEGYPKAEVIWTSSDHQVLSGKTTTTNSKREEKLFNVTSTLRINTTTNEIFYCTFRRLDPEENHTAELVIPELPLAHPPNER
Description: The binding affinities of the generated antibodies to human PD-L1 were determined by surface plasmon resonance. […] PD-L1-His (Acro Cat PDL-H5229) was tested for binding in a 3-fold titration series up to 100 nM. Data were collected in HBS-P (pH 7.4) at 37° C. and 25° C.

T1 sequence (Q9NZQ7 19-238): as the sequence (Q9NZQ7 19-238 limits assumed) above

EC50 (6xHis-tagged huPD-L1): 0.0359 mg/L
EC50 [1]: 0.0199 mg/L
Kd [2]: 0.27 nM
koff [2]: 5.1e-05 s⁻¹
kon [2]: 190000 M⁻¹ s⁻¹
B1: 1P9 (antibody, V domains shown)
VH: EVQLVESGGGLVQPGGSLRLSCAASGFTFSTYWMSWVRQAPGKGLEWVANIKQDGGERYYVDSVKGRFTISRDNAKSSLYLQMNSLRAEDTALYYCARLRLYSDYEDYWGQGTLVTVSS
VL: DIQMTQSPSSVSASVGDRVTITCRASQGISSWLAWYQQKPGKAPKLLIYSVSSLQSGVPSRFSGSGSGTDFTLTISSLQPEDSATYYCQQANSLPPTFGGGTKVEIK
notes: Recombinant full-length human antibody expressed in CHO K1 GS KO cells, with wild-type human Fc; also called anti-PD-L1 antibody 1P9; Unconj; 1P9
